Test results from patent US20140286957A1 (Teva, published 2014).
Read-outs that look alike come from different tables or passages of the source.

T1: Human CD1d on cells (human, UniProt P15813 20-335)
T1 sequence (looked up): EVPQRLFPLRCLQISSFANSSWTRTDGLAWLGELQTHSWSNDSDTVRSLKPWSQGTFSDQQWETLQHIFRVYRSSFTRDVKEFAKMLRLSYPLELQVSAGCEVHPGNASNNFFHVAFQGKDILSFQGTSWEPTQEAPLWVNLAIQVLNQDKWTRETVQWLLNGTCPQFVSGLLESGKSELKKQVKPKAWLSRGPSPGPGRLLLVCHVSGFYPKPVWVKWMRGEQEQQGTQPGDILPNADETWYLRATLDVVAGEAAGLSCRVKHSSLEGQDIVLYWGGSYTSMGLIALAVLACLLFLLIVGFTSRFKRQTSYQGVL

B1: 401.11.152 (antibody, IgG4, V domains shown)
VH: EVQLVESGGGLVQPGRSLRLSCAASGFTFDDYAMHWVRQAPGKGLEWVATIIWNSAIIGYADSVKGRFIVSRDNAKNSLYLQMNSLRAEDTALYYCAKDMCSSSGCPDGYFDSWGQGTLVTVSS
VL: DIQMTQSPSSVSASVGDRVTITCRASQHISSWLAWYQQKPGKAPKLLIYAASSLQSGVSSRFSGSGSGTDFTLTISSLQPEDFATYYCQQANRFPLTFGGGTKLEIKR
notes: IgG4 (S228P)
B2: 401.11.19 (antibody, V domains shown)
VH: QVQLVGSGGGLVKPGRSLRLSCAASGFTFDDYAMHWVRQAPGKGLEWVATIIWNSAIIGYADSVKGRFIVSRDNAKNSLYLQMNSLRAEDMALYYCAKDMCSSSGCPDGYFDSWGQGTLVTVSS
VL: DIQMTQSPSSVSASVGDRVTITCRASQHISSWLAWYQQKPGKAPKLLIYAASSLQSGVSSRFSGSGSGTDFTLTISSLQPEDFATYYCQQANRFPLTFGGGTKLEIK
B3: 401.11.156 (antibody, IgG4, V domains shown)
VH: QVQLVGSGGGLVKPGRSLRLSCAASGFTFDDYAMHWVRQAPGKGLEWVATIIWNSAIIGYADSVKGRFIVSRDNAKNSLYLQMNSLRAEDTALYYCAKDMCSSGGCPDGYFDSWGQGTLVTVSS
VL: DIQMTQSPSSVSASVGDRVTITCRASQHISSWLAWYQQKPGKAPKLLIYAASSLQSGVSSRFSGSGSGTDFTLTISSLQPEDFATYYCQQANRFPLTFGGGTKLEIKR
notes: IgG4 (S228P)
B4: 401.11.157 (antibody, IgG4, V domains shown)
VH: QVQLVGSGGGLVKPGRSLRLSCAASGFTFDDYAMHWVRQAPGKGLEWVATIIWNSAIIGYADSVKGRFIVSRDNAKNSLYLQMNSLRAEDTALYYCAKDMCSSGGCPDGYFDSWGQGTLVTVSS
VL: DIQMTQSPSSVSASVGDRVTITCRASQHISSWLAWYQQKPGKAPNLLIYAASSLQSGVPSRFSGSGSGTDFTLTISSLQPEDFATYYCQQANRFPLTFGGGTKLEIKR
notes: IgG4 (S228P)
B5: 401.11.161 (antibody, IgG4, V domains shown)
VH: EVQLVESGGGLVQPGRSLRLSCAASGFTFDDYAMHWVRQAPGKGLEWVATIIWNSAIIGYADSVKGRFIVSRDNAKNSLYLQMNSLRAEDMALYYCAKDMCSSGGCPDGYFDSWGQGTLVTVSS
VL: DIQMTQSPSSVSASVGDRVTITCRASQHISSWLAWYQQKPGKAPKLLIYAASSLQSGVPSRFSGSGSGTDFTLTISSLQPEDFATYYCQQANRFPLTFGGGTKLEIKR
notes: IgG4 (S228P)
B6: 401.11.20 (antibody, V domains shown)
VH: QVQLVGSGGGLVKPGRSLRLSCAASGFTFDDYAMHWVRQAPGKGLEWVATIIWNSAIIGYADSVKGRFIVSRDNAKNSLYLQMNSLRAEDMALYYCAKDMCSSSGCPDGYFDSWGQGTLVTVSS
VL: DIQMTQSPSSVSASVGDRVTITCRASQHISSWLAWYQQKPGKAPNLLIYAASSLQSGVPSRFSGSGSGTDFTLTISSLQPEDFATYYCQQANRFPLTFGGGTKLEIK
B7: 401.11.155 (antibody, IgG4, V domains shown)
VH: EVQLVESGGGLVQPGRSLRLSCAASGFTFDDYAMHWVRQAPGKGLEWVATIIWNSAIIGYADSVKGRFIVSRDNAKNSLYLQMNSLRAEDMALYYCAKDMCSSSGCPDGYFDSWGQGTLVTVSS
VL: DIQMTQSPSSVSASVGDRVTITCRASQHISSWLAWYQQKPGKAPKLLIYAASSLQSGVPSRFSGSGSGTDFTLTISSLQPEDFATYYCQQANRFPLTFGGGTKLEIKR
notes: IgG4 (S228P)

Key:
[1] = molecular target: T2, Human CD1d/β2M (human, UniProt P15813 20-301; P61769 21-119); assay: SPR
T2 construct: also called hCD1d; recombinant human CD1d

[2] = molecular target: T1, Human CD1d on cells; assay: cell-based or functional assay
[3] = molecular target: T2, Human CD1d/β2M; assay: SPR, transfection supernatant
[4] = molecular target: T1, Human CD1d on cells; assay: cell-based or functional assay; remark: listed apart in the source
[5] = molecular target: T1, Human CD1d on cells; assay: cell-based or functional assay; remark: listed apart in the source
[6] = molecular target: T1, Human CD1d on cells; assay: cell-based or functional assay; remark: listed apart in the source

Row | Binder | Kd [1] [nM] | NKT IL-4 EC50 (moDC) [2] [ng/mL] | NKT IL-13 EC50 (moDC) [2] [ng/mL] | Kd [3] [nM] | fold improvement against 401.11 (IFN-γ, moDC) [4] [fold] | NKT IFN-γ EC50 (moDC) [5] [ng/mL] | NKT IL-4 EC50 (moDC) [5] [ng/mL] | NKT IL-5 EC50 (moDC) [5] [ng/mL] | NKT IL-13 EC50 (moDC) [5] [ng/mL] | NKT TNF EC50 (moDC) [5] [ng/mL] | NKT IFN-γ EC50 (THP-1) [6] [ng/mL] | NKT IL-4 EC50 (THP-1) [6] [ng/mL] | NKT IL-5 EC50 (THP-1) [6] [ng/mL] | NKT IL-13 EC50 (THP-1) [6] [ng/mL] | NKT TNF EC50 (THP-1) [6] [ng/mL]
1 | B1 | 2.83 | 10.2 | 78.5 |  |  |  |  |  |  |  |  |  |  |  | 
2 | B2 |  |  |  | 0.667 |  |  |  |  |  |  |  |  |  |  | 
3 | B3 | 0.223 | 1.95 | 5.22 |  | ~5.1 | 7.76 | 2.72 | 5.86 | 9.53 | 4.51 | 5.81 | 1.99 | 4.45 | 6.91 | 3.85
4 | B4 | 0.173 | 0.799 | 3.87 |  |  | 9.11 | 3.44 | 8.49 | 20.6 | 5.59 | 5.45 | 1.81 | 4.48 | 6.98 | 3.54
5 | B5 | 0.255 | 5.24 | 8.38 |  |  |  |  |  |  |  |  |  |  |  | 
6 | B6 |  |  |  | 0.977 |  |  |  |  |  |  |  |  |  |  | 
7 | B7 | 2.42 | 27.6 | 74.7 |  |  |  |  |  |  |  |  |  |  |  | 
